Assay [1] addresses T1, MERS Receptor Binding Domain (RBD) protein (MERS virus, UniProt K9N5Q8 367-606).
T1 construct: also called Middle East Respiratory Syndrome (MERS) virus
T1 sequence: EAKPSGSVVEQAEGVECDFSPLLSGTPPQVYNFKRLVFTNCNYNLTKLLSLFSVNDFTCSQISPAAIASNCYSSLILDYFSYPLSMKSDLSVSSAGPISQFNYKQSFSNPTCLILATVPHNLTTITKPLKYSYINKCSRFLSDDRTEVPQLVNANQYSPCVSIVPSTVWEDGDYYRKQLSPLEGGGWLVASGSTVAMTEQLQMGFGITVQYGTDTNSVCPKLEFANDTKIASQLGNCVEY
The experiment in a line: SPR; clone listed as COV2 only at the 21st table, row 23, column 3. A general note: In SPR one partner is held on a chip, and binding of the other changes the refractive index at the surface.

The target in assay [2] is T2, SARS-CoV-1 Receptor Binding Domain (RBD) protein (SARS-CoV-1, UniProt P59594 306-527).
T2 construct: also called SARS1
The assay is described as above.

The target of assay [3] is SARS-CoV-2 Receptor Binding Domain (RBD) protein (SARS-CoV-2, UniProt P0DTC2 319-541).
For assay [4], the target named is T1, MERS Receptor Binding Domain (RBD) …. The experiment in a line: SPR; clone listed as COV2 only at the 21st table, row 25, column 3.
For assay [5], the target named is T2, SARS-CoV-1 Receptor Binding Domain …. The description is as above.
Assay [6] concerns the target T1, MERS Receptor Binding Domain (RBD) …. Briefly: SPR; clone listed as COV2 only at the 21st table, row 22, column 3.
In assay [7] the target is T2, SARS-CoV-1 Receptor Binding Domain …. The assay is described as above.
Assay [8] has as its target T1, MERS Receptor Binding Domain (RBD) …. The experiment in a line: SPR; clone listed as COV2 only at the 21st table, row 24, column 3.
In assay [9] the target is T2, SARS-CoV-1 Receptor Binding Domain …. The description is as above.
Assay [10] addresses T1, MERS Receptor Binding Domain (RBD) …. The experiment in a line: SPR; clone listed as COV2 only at the 21st table, row 4, column 3.
In assay [11] the target is T2, SARS-CoV-1 Receptor Binding Domain …. The description is as above.
Assay [12] deals with T1, MERS Receptor Binding Domain (RBD) …. The experiment in a line: SPR; clone listed as COV2 only at the 21st table, row 15, column 3.
For assay [13], the target named is T2, SARS-CoV-1 Receptor Binding Domain …. The assay is described as above.
For assay [14], the target named is T1, MERS Receptor Binding Domain (RBD) …. The experiment in a line: SPR; clone listed as COV2 only at the 21st table, row 19, column 3.
In assay [15] the target is T2, SARS-CoV-1 Receptor Binding Domain …. Described as above.
For assay [16], the target named is T1, MERS Receptor Binding Domain (RBD) …. The experiment in a line: SPR; clone listed as COV2 only at the 21st table, row 17, column 3.
The target in assay [17] is T2, SARS-CoV-1 Receptor Binding Domain …. The description is as above.
The target of assay [18] is T1, MERS Receptor Binding Domain (RBD) …. The experiment in a line: SPR; clone listed as COV2 only at the 21st table, row 7, column 3.
The target in assay [19] is T2, SARS-CoV-1 Receptor Binding Domain …. Described as above.
Assay [20] addresses T1, MERS Receptor Binding Domain (RBD) …. The experiment in a line: SPR; clone listed as COV2 only at the 21st table, row 21, column 3.
Assay [21] has as its target T2, SARS-CoV-1 Receptor Binding Domain …. Described as above.
In assay [22] the target is T1, MERS Receptor Binding Domain (RBD) …. The experiment in a line: SPR; clone listed as COV2 only at the 21st table, row 14, column 3.
Assay [23] addresses T2, SARS-CoV-1 Receptor Binding Domain …. Described as above.
In assay [24] the target is T1, MERS Receptor Binding Domain (RBD) …. Briefly: SPR; clone listed as COV2 only at the 21st table, row 16, column 3.
Assay [25] deals with T2, SARS-CoV-1 Receptor Binding Domain …. The assay is described as above.

The values that follow come from patent US11034762 (CENTIVAX, dated 2021).

B1: COVID19_P22_F07 (scFv, V domains shown)
VH: QVQLVQSGAEVKKPGSSVKVSCKASGGTFSSYAISWVRQAPGQGLEWMGGIIPIFGSTASYAQKFQGRVTITADESTSTAYMELSSLRSEDTAVYYCAGEWGISTPMDVWGQGTLVTVSS
VL: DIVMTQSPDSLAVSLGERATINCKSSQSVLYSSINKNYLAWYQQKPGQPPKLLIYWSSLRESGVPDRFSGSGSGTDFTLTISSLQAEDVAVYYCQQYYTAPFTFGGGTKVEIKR
B1: the binding result in [1] is listed as “no binding (tested: up to 300 nM)”. Also, in [2], the binding result is “no binding (tested: up to 300 nM)”. In [3], this molecule registered an equilibrium dissociation constant (Kd) of 6.58 nM, a koff of 0.00041 s⁻¹ and a kon of 63000 M⁻¹ s⁻¹.

B2: COVID19_P09_B07 (scFv, V domains shown)
VH: QVQLVQSGAEVKKPGSSVKVSCKASGGTFSSYAISWVRQAPGQGLEWMGGIIPTLGTANYAQKFQGRVTITADESTSTAYMELSSLRSEDTAVYYCAGSWGISTPMDVWGQGTLVTVSS
VL: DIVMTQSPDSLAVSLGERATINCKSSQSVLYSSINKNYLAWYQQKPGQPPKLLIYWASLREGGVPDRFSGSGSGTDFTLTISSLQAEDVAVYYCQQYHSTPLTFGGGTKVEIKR
In the case of B2, in assay [4], the binding result is given as “no binding (tested: up to 300 nM)”. Moreover, the binding result in assay [5] is given as “no binding (tested: up to 300 nM)”. In assay [3], this molecule yielded a dissociation constant (Kd) of 3.66 nM, a koff of 0.000533 s⁻¹ and a kon of 146000 M⁻¹ s⁻¹.

B3: COVID19_P22_E12 (scFv, V domains shown)
VH: QVQLVQSGAEVKKPGSSVKVSCKASGGTFSSYAINWVRQAPGQGLEWMGGIIPVLHTVDYAQRLQGRVTITADESTSTAYMELSSLRSEDTAVYYCAGEWGISTPMDVWGQGTLVTVSS
VL: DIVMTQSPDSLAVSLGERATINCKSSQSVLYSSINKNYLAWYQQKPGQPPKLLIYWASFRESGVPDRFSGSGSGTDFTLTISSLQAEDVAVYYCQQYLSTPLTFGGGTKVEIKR
Turning to B3, in assay [3], the Kd came out at 44 nM, the koff stood at 0.0089 s⁻¹ and the kon was 200000 M⁻¹ s⁻¹. In addition, the binding result in [6] was “no binding (tested: up to 300 nM)”. Besides, the binding result in assay [7] is “no binding (tested: up to 300 nM)”.

B4: COVID19_P09_H08 (scFv, V domains shown)
VH: QVQLVQSGAEVKKPGSSVKVSCKASGGTFSSYAISWVRQAPGQGLEWMGGIIPIFGTTNYAQKFQGRVTITADESTSTAYMELSSLRSEDTAVYYCAGEWGISTPMDVWGQGTLVTVSS
VL: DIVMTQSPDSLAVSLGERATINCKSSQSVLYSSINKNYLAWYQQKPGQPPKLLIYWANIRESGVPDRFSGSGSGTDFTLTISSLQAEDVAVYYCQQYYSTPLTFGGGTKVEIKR
As for B4, in assay [3], the affinity, expressed as Kd, was 3.25 nM; the koff was found to be 0.00039 s⁻¹; the kon came to 120000 M⁻¹ s⁻¹. For the same molecule, in assay [8], the binding result was “no binding (tested: up to 300 nM)”. Further, the binding result in [9] was “no binding (tested: up to 300 nM)”.

B5: COVID19_P22_F04 (scFv, V domains shown)
VH: QVQLVQSGAEVKKPGSSVKVSCKASGGGFITYWIGWVRQAPGQGLEWMGIIYPGDGEARYSQKFQGRVTITADESTSTAYMELSSLRSEDTAVYYCAGGSGISTPMDVWGQGTLVTVSS
VL: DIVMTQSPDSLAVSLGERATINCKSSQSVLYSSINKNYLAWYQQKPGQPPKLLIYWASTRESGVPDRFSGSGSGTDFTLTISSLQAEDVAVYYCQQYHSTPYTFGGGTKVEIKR
As to B5, the binding result in [10] is recorded as “no binding (tested: up to 300 nM)”. In [11], the binding result is reported as “no binding (tested: up to 300 nM)”. In assay [3], this molecule had a Kd of 30.6 nM, a koff of 0.0085 s⁻¹ and a kon of 280000 M⁻¹ s⁻¹.

B6: COVID19_P21_A08 (scFv, V domains shown)
VH: QVQLVQSGAEVKKPGSSVKVSCKASGGTFITYWIGWVRQAPGQGLEWMGWINPNSGGTNYAQKFQGRVTITADESTSTAYMELSSLRSEDTAVYYCAGGSGISTPMDVWGQGTLVTVSS
VL: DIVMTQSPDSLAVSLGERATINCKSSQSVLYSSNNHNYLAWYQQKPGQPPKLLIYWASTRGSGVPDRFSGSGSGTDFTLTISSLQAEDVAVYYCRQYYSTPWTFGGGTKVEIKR
In the case of B6, the binding result in assay [12] is listed as “no binding (tested: up to 300 nM)”. In assay [13], the binding result is “no binding (tested: up to 300 nM)”. In assay [3], this molecule registered a Kd of 13.3 nM, a koff of 0.000496 s⁻¹ and a kon of 37300 M⁻¹ s⁻¹.

B7: COVID19_P09_E11 (scFv, V domains shown)
VH: QVQLVQSGAEVKKPGSSVKVSCKASGGTFSNHAISWVRQAYGQGLEWMGIIYPGDGTTRYSQKFQGRVTITADESTSTAYMELSSLRSEDTAVYYCAGGSGISTPMDVWGQGTLVTVSS
VL: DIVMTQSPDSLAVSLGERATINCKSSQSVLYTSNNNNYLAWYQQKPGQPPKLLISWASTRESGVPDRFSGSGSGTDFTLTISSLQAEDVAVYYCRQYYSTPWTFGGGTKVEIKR
As to B7, the binding result in assay [14] was “no binding (tested: up to 300 nM)”. Besides, the binding result in assay [15] was “no binding (tested: up to 300 nM)”. In [3], this molecule yielded a Kd of 0.49 nM, a koff of 0.000123 s⁻¹ and a kon of 249000 M⁻¹ s⁻¹.

B8: COVID19_P10_D08 (scFv, V domains shown)
VH: QVQLVQSGAEVKKPGSSVKVSCKASGGTFNSHAISWVRQAPGQGLEWMGWINPNSGATNYAQKFQGRVTITADESTSTAYMELSSLRSEDTAVYYCAGGSGISTPVGVWGQGTLVTVSS
VL: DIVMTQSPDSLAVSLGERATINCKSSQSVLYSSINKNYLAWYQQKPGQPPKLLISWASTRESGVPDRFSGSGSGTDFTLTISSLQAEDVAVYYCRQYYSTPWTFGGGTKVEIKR
In the case of B8, the binding result in assay [16] was “no binding (tested: up to 300 nM)”. In assay [17], the binding result is reported as “no binding (tested: up to 300 nM)”. Further, in assay [3], the Kd came to 15.2 nM, the koff was found to be 0.00107 s⁻¹ and the on-rate (kon) is 70700 M⁻¹ s⁻¹.

B9: COVID19_P22_E06 (scFv, V domains shown)
VH: QVQLVQSGAEVKKPGSSVKVSCKASGGGFITYWIGWVRQAPGQGLEWMGIIYPGDSETRYSQKFQGRVTITADESTSTAYMELSSLRSEDTAVYYCAGGSGISSDMDVWGQGTLVTVSS
VL: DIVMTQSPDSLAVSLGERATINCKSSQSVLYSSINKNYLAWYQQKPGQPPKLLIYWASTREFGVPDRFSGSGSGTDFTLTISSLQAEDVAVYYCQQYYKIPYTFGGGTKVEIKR
For the molecule B9, the binding result in assay [18] is given as “no binding (tested: up to 300 nM)”. The binding result in [19] was “no binding (tested: up to 300 nM)”. In assay [3], this molecule displayed a Kd of 42.7 nM, a koff of 0.0057 s⁻¹ and a kon of 130000 M⁻¹ s⁻¹.

B10: COVID19_P10_G03 (scFv, V domains shown)
VH: QVQLVQSGAEVKKPGSSVKVSCKASGGTFSNSSINWVRQAPGQGLEWMGRINPNSGGTNYAQKFQGRVTITADESTSTAYMELSSLRSEDTAVYYCAGGSGISTPMDVWGQGTLVTVSS
VL: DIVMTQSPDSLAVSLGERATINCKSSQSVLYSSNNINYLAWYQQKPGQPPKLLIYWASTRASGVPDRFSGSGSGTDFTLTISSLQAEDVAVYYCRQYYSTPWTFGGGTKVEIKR
For the molecule B10, the binding result in assay [20] was “no binding (tested: up to 300 nM)”. Besides, the binding result in [21] is recorded as “no binding (tested: up to 300 nM)”. In assay [3], this molecule showed a Kd of 40.4 nM, a koff of 0.00177 s⁻¹ and an association rate constant (kon) of 43800 M⁻¹ s⁻¹.

B11: COVID19_P10_C05 (scFv, V domains shown)
VH: QVQLVQSGAEVKKPGSSVKVSCKASGGTFITYWIGWVRQAPGQGLEWMGIIYPGDGEARYSQKFQGRVTITADESTSTAYMELSSLRSEDTAVYYCAGSGGISTPMDVWGQGTLVTVSS
VL: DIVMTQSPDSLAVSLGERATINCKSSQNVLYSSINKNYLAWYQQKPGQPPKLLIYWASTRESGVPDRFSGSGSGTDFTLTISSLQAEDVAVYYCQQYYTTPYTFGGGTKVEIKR
For B11, the binding result in [22] is on record as “no binding (tested: up to 300 nM)”. For the same molecule, the binding result in assay [23] was “no binding (tested: up to 300 nM)”. In addition, in [3], binding was put at a Kd of 33.8 nM, the koff worked out at 0.0156 s⁻¹ and the kon was 462000 M⁻¹ s⁻¹.

B12: COVID19_P09_H09 (scFv, V domains shown)
VH: QVQLVQSGAEVKKPGSSVKVSCKASGGTFITYWIYWVRQAPGQGLEWMGIIYPGDGEARYSQKFYGRVTITADESTSTAYMELSSLRSEDTAVYYCAGSGGISTPMDVWGQGTLVTVSS
VL: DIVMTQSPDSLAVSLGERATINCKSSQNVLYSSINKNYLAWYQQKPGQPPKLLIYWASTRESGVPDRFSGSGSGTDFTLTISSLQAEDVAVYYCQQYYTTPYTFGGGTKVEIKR
On to B12, for which, in assay [24], the binding result is reported as “no binding (tested: up to 300 nM)”. The binding result in [25] is reported as “no binding (tested: up to 300 nM)”. In assay [3], this molecule showed a Kd of 35.2 nM, a koff of 0.0154 s⁻¹ and a kon of 438000 M⁻¹ s⁻¹.

In general, Kd refers to a measure of binding affinity in units of concentration. Read a low Kd as tighter binding. As a reminder, the koff is the rate constant with which the complex falls apart. Usually kon stands for the rate constant with which the complex forms.
